Data as given in the supplement of paper PMC10567573.

B1: ZNF8 (parent)
chain: SLGRHKRTHTGEKPYTCSVCGKSF

Variants of: B1
Experiment: protein stability index of a GFP-peptide fusion (GPS, HEK-293T) (PSI 1-6); higher = more stable
Settings: c terminus: a fixed tail appended
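Further: lentivirally expressed fusions sorted by FACS into six bins by GFP to DsRed ratio, PSI derived from sequencing read proportions per bin multiplied by bin number.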

Protein stability index: each site, then its substitutions
S18: F 2.08, A 2.94, G 2.83, I 2.34, P 3, V 2.83, N 2.02, D 2.76, L 2.44, Y 2.71, R 2.54, E 3.38, W 2.84, T 2.68, C 2.63, M 2.58, K 2.98, H 2.26, Q 3.16
H5: W 2.46, F 1.82, P 2.78, G 3.18, A 2.5, N 2.52, Q 2.84, Y 2.72, D 3.17, M 2.6, I 3.34, S 2.35, K 3.01, E 3.15, T 3.06, L 2.26, R 3.03, C 3.77, V 2.54
G21: E 2.1, A 2.35, H 2.78, I 2.01, F 2.5, D 3.11, C 2
C17: H 3.32, E 3.77, G 3.49, Q 3.76, M 2.96, L 2.33, Y 2.77, P 3.17, I 2.38, A 3.81, S 3.3, V 3.58, W 2.81, D 4.3, T 3.19, N 3.78, K 3.65, F 2.4, R 2.75
C20: Y 2.94, H 2.79, W 2.4, I 2.94, P 3.36, G 3.18, D 3.99, M 3.36, E 3.78, K 3.23, A 3.05, V 3.13, R 2.98, S 4, Q 3.42, L 2.45, T 3.44, F 2.47, N 3.51
G3: R 2.03, L 1.21, W 1.98, N 2.21, S 1.93, M 2.66, T 3.28, P 3.02, V 3.78, Y 2.79
T8: D 3.45, N 2.44, R 2.83, S 3.02, I 1.91, H 3.05, P 2.64, C 2.45, L 2.61, V 2.68, A 3.09, K 3.17, Y 2.65, G 2.68, Q 3.17, M 1.9, E 2.97, W 2.2, F 2.6
G11: S 2.79, E 2.51, I 2.07, R 2.53, Y 2.94, H 3.29, F 2.4, C 2.77, P 2.73, N 2.3, M 2.41, T 3.09, W 3.56, D 3.24, L 2.42, Q 2.53, V 1.98, A 2.17, K 2.9
K6: T 2.97, V 2.35, H 1.97, E 3.29, M 2.38, Q 2.95, R 2.77, D 4.27, A 2.68, F 1.82, W 1.94, C 3.29, Y 3.23, I 2.43, P 2.18, N 2.48, L 2.04, S 2.61, G 2.33
T10: W 2.33, L 2.19, Y 2.18, R 2.32, K 2.84, F 1.88, P 2.56, Q 3.12, E 2.86, S 3.28, A 2.84, N 3.44, V 2.09, G 3.3, M 2.74, C 2.08, D 3.47
